These results are taken from publication PMC5595237 (Nature, 2017).

The series deals with the molecule itself. The series is described as follows: SEC. On the technique in general: Size exclusion chromatography separates by hydrodynamic size, large species first.

B1: full-length human adiponectin (ligand)
chain: ETTTQGPGVLLPLPKGACTGWMAGIPGHPGHNGAPGRDGRDGTPGEKGEKGDPGLIGPKGDIGETGVPGAEGPRGFPGIQGRKGEPGEGAYVYRSAFSVGLETYVTIPNMPIRFTKIFYNQQNHYDGSTGKFHCNIPGLYYFAYHITVYMKDVKVSLFKKDKAMLFTYDQYQENNVDQASGSVLLHLEVGDQVWLQVYGEGERNGLYADNDNDSTFTGFLLYHDTN
B1: the binding result is “binds”.
